Results reported in paper PMC3991700.

Biological target: T1, FilR1 (Methanosaeta harundinacea 6Ac) (UniProt G7WMP6)
T1 sequence: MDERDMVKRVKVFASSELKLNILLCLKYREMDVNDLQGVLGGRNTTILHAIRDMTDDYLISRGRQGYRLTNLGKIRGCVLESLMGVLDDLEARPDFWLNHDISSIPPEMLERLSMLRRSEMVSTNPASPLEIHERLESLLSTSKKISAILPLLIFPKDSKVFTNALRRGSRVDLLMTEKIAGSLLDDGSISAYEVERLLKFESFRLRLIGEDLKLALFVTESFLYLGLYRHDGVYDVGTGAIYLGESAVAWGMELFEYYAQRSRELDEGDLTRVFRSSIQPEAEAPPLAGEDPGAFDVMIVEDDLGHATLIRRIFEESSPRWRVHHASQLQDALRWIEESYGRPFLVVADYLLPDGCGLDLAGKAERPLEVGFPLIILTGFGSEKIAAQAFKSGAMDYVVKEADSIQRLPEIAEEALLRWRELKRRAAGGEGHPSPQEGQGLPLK
Experiment: EMSA
Conditions: EMSA: 10 mM Tris-HCl pH 8.0, 50 mM KCl, 10 mM MgCl2, 1 mM DTT, 2.5% glycerol, 1% NP-40, 0.5 mM EDTA, 1 ug/uL poly dI-dC, 10 fmol (0.5 nM) biotin probe, 20 uL …

Row | Sequence | binding
1 | AAACCGCCCTCCTCTCCAGCCTCTCACCATTTCAACCTGGCGGATTGAGTTCAATCTAAATGGATTTTTATCAATTTAATTGGATATCCTCCCATCAAAACATAATCGGTAATTTTTAGCATTAAATCACCGTCACGATTTCACAAACTTAAATGTATATGTGTTCTAATCAATAAACTAAACAATAATATTCTCATTATACTAGTTGCCAATCCGAAAGGGTTTTATCTTCTACATGCGACTACCGAGCAAACCAGAGTACAGAAGGAGGTCAAGC (double strand) [cdhBEA promoter] | no binding
2 | AACCCCCATAAATGATAGATCCGAAAGTAATTAAATAAATCGGTCGGTCTTCGGCCGCGGGTGGAACCAGAGGATCCCATCAGCTATGAGGGGGATCGTCAGGTGGACCGCCCTTTGAAGGATCATCCATCTCCTGAGACCTCCAGACCCCGGCGAGATGGCCGTTAGTCTCCATAAGCTCTCTCCAGCTGCCGGATTCGACAAATCGCCCCCTCTCCAGGACCTGGATCATTACCGAGGAGAGGTTTTGCCC (double strand) [Pomp] | binds
3 | AACGGGTTCCATCTCGATATGATCAAGGGGTGGGGGGTTTATTAATAGGTTGAGGTCCCCCTCTCGAGGCCCGGAAAGGGCAAGAGATCCCCCGATAGATTTTTATCGACCGCATATTATCGAATTTTCCCCCGGCAGAGAGGCGGAGGCTTTATACCATTTTGGCATATCGAGGGTGAGTGGGTGAATCGGCATGGCGGAG (double strand) [Pacs1] | binds
4 | AATCCACCTAAACTCACCCATATTATGCCAGTTTGAAGCCTTTTAGGACCGACCGCATCACTGCTTAGCGGTAGTGATGCTAATCGATTTTCTCATAAACCTTTTATATCAGTACCTTGTGTTTAGCTCTTACGGCTAATGGAGGTAAAAAATGAGCGGCGAATTGGTG (double strand) [fpo promoter] | no binding
5 | ACCCGTTTGACCATATCCCTTTCGTCCATGTTGAGGTCCCCCTCATTTTAAGGGCCTAAATGGCGTAGATCCACGAAAGCCGGGAGCGATTCGCGATCCGACGGAACAACTCCCCAGTTATCGGCTTGATATCAGCCTCCACCCTCCAATTTCGCGAGCCCATCTCCTCGGCTTGAGTTTTTTCCTTGATTTCGCCGTATAAGTAGCTTCCGACGATCCCGATGCTGATAGAAGCTCTGAAGTTCTCATCGTACCG (double strand) [PfilR1 (filR1 promoter)] | binds
6 | AGATGAAACCAGAATTATCGTTGAAGATCCCTCCCTCCGAAGATCTCCGATGGATCTCATCGATGGAACCATCTGAGGAGGCGGATCGTCGTCACCGGTTCCCCACCCGCGATGGACAATTATTCGTTATACTCGGAGGGTTATCTTCATAAACCACGGACGGATGACAGTAAGGCAGGTGCGAGGCCTTCATCACCCAGTGGACGGAGAGACAATCTCGTTTTGGAGGAGGTTGAAAGGAAG (double strand) [PfilI-R2 (filI-filR2 promoter)] | binds
7 | CCATCCCTCTCCCTCAAGATATAGGAGGGAAAAGGTGGACGCTCACTTGGCGAGCGTCACCTTCTCGATGGTAACCTTGGCGTCCTTGAGGATCAGCTTGATCCCGCCCGCTCCGCCCGCCGACATGGCAAAGGCGGGGGCAGCTCCTGCCGCCGGGGCTGCTGCTGCGGCCGGAGCCGCCGCGGCAGGTGCTCCAGGTTCCTTCGACTTCAGCTTCAGTGACAGTTTCTTGGCCATTCCTATAACCTCCTACACCCTCAAATACAGAGATACTATAAATTC (double strand) [cdhCD promoter] | no binding
8 | CCATTAGGAGCCGTCGATTCAGCTGTTTTTGATTTTCAGGATTTATACCCGGCCGATATTCCATATTTTGGAATCTATAATGATTAAAAGGCCACTAACCTTATTAATCATGAAGATTACTAATCGACATGGTCCAGTCGAGCGTTCTCTATAGACAAACGGAGAGAATGCGTGGCAGATTCTGGTTTGAAATCTCCGTATTGGAGCTGGTATCTGCCCGGGGATCTGGGGAGAGAAGAGTGCAAAATATTCGATCTTTGATTAAGGAGGGTTGAAATTGGCT (double strand) [Pacs4] | binds
9 | GCTAACCATGTCCATTTGCTCTCCTCCTTTTTAATTCTTGCCAAATCATAGTAATCTATGAAAAATTTGGCCAGTAACGTACTGACTATCGGTTACTGGACTTATAAAGCTTTCGAAATGGAAATGAAAGCCCCATTTTTGTTTTTTGTCCCGGTTTTAGTGAGCCCGAAAGATCTGAAATCCCCAAATAAAAGCCTGAAATATAAAAAAAACAAGGAAGAACAGTTTGGGGCGAA (double strand) [Pmtr] | binds
10 | GGTCGGAGAGGCTGAGGGCGATCCCCGTCGTCGTCCTCACCACCTCCACCAGCGACGACGACCTCCGGCGGGCCTACTCCAACCACGTCAACAGCTACCTCATCAAGCCCCTCAGCTTCGAGGACCTGAAGCGGACCGTCGAGGAGATCAAAGAGTACTGGCTTGGATGGAACCGCTCCCCCGGACCCGCGTGAAAGACCCCAGAGGTGAGCGAAACCGAGGCCTTCACCCATGACGCTGCGCC (double strand) [UfilI (internal fragment of filI)] | no binding
